Measured values reported in patent US20190233823 (AEROVIRUS TECHNOLOGIES INC., published 2019).

B1: APT3Cooc3 (ssDNA)
DNA: GCCTGTTGTGAGCCTCCTAACTAGCTCGTAGAAAAAAAATATAGCGTGTGCTGGGACTGCTCGGGATTGCGGACACATGCTTATTCTTGTCTCCC
B2: APT3Histo1 (ssDNA)
DNA: GCCTGTTGTGAGCCTCCTAACCGCACGTGGGTATTCTAAGTGCGGTAGCTCAATGGTGAGCGATGAGCATCATGCTTATTCTTGTCTCCC
B3: APT3Cooc10 (ssDNA)
DNA: GCCTGTTGTGAGCCTCCTAACGGGTATGACTACAGATGCAGGGCGGCCTGTAGCCTTGCATTGACAAGGGCATGCTTATTCTTGTCTCCC

biological target: P97 cilium adhesin ectodomain fragment (P97 peptidic complex, SELEX target section 768-925) (Mycoplasma hyopneumoniae); experiment: ELONA; settings: tags: His (histidine labelled, Ni-NTA captured)
Experimental: Selected ssDNA molecules from each individual clone were biotinylated using the B-T3 which is same sequence with 5′ primer (T3 primer), and Klenow fragment (2 unit/ml). To prepare single stranded biotin conjugated APT3Cooc10 aptamer for the reverse screening. T3 Primer was Biotin labelled. A 96-well flat bottom ELISA plate was prepared by coating each well with 100 μl of streptavidin (100 μg/ml) diluted in 0.1 M NaHCO₃ following by a 37° C. overnight incubation. Following several washings with PBS, wells were blocked with 200 μl of PBS containing 1% BSA for 2 hours at room temperature and subsequent washing three times with PBS-T (10 mM PBS containing 0.05% (v/v) Tween-20). Thereafter, 100 μl of 2.5 pmole/100 μl biotinylated-ssDNA were added to the wells and incubated at 37° C. for 2 hours followed by washing four times with PBS-T. T3 primer was used as negative control. Following washing, 100 μl of fluid containing 2 μg histidine labelled P97 peptidic complex were added to the indicated wells and incubated at 37° C. for 2 hours. The wells were then washed for 4 times with PBS-T. The reverse screening assay was completed using the DAKO Mycoplasma Hyopneumoniae ELISA tests (K004311-9 kit, Oxoid Ltd, UK).

Binder	binding result
B1	binds
B2	binds
B3	binds
